Source: IntAct's records for PubMed 31515488

B1: E3 ubiquitin-protein ligase CCNB1IP1 (Homo sapiens), Q9NPC3 (parent)
chain: MSLCEDMLLCNYRKCRIKLSGYAWVTACSHIFCDQHGSGEFSRSPAICPACNSTLSGKLDIVRTELSPSEEYKAMVLAGLRPEIVLDISSRALAFWTYQVHQERLYQEYNFSKAEGHLKQMEKIYTQQIQSKDVELTSMKGEVTSMKKVLEEYKKKFSDISEKLMERNRQYQKLQGLYDSLRLRNITIANHEGTLEPSMIAQSGVLGFPLGNNSKFPLDNTPVRNRGDGDGDFQFRPFFAGSPTAPEPSNSFFSFVSPSRELEQQQVSSRAFKVKRI
partner: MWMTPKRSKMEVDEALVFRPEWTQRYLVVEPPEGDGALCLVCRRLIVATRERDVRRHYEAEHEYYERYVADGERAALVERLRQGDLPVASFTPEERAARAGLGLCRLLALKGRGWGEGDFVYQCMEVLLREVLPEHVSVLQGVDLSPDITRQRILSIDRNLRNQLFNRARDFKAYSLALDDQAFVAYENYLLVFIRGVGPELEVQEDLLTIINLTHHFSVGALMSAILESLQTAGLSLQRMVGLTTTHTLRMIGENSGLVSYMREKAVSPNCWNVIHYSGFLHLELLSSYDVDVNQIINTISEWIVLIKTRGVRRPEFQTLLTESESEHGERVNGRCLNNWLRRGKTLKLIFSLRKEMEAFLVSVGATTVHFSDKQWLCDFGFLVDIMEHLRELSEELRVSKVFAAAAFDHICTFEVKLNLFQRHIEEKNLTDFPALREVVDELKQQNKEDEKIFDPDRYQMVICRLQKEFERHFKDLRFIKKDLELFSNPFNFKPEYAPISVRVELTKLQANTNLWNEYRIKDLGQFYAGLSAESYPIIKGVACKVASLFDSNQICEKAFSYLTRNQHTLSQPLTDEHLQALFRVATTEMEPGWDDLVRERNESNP
B2: SHC-transforming protein 1 (Homo sapiens), P29353 (parent)
chain: MDLLPPKPKYNPLRNESLSSLEEGASGSTPPEELPSPSASSLGPILPPLPGDDSPTTLCSFFPRMSNLRLANPAGGRPGSKGEPGRAADDGEGIVGAAMPDSGPLPLLQDMNKLSGGGGRRTRVEGGQLGGEEWTRHGSFVNKPTRGWLHPNDKVMGPGVSYLVRYMGCVEVLQSMRALDFNTRTQVTREAISLVCEAVPGAKGATRRRKPCSRPLSSILGRSNLKFAGMPITLTVSTSSLNLMAADCKQIIANHHMQSISFASGGDPDTAEYVAYVAKDPVNQRACHILECPEGLAQDVISTIGQAFELRFKQYLRNPPKLVTPHDRMAGFDGSAWDEEEEEPPDHQYYNDFPGKEPPLGGVVDMRLREGAAPGAARPTAPNAQTPSHLGATLPVGQPVGGDPEVRKQMPPPPPCPGRELFDDPSYVNVQNLDKARQAVGGAGPPNPAINGSAPRDLFDMKPFEDALRVPPPPQSVSMAEQLRGEPWFHGKLSRREAEALLQLNGDFLVRESTTTPGQYVLTGLQSGQPKHLLLVDPEGVVRTKDHRFESVSHLISYHMDNHLPIISAGSELCLQQPVERKL
partner: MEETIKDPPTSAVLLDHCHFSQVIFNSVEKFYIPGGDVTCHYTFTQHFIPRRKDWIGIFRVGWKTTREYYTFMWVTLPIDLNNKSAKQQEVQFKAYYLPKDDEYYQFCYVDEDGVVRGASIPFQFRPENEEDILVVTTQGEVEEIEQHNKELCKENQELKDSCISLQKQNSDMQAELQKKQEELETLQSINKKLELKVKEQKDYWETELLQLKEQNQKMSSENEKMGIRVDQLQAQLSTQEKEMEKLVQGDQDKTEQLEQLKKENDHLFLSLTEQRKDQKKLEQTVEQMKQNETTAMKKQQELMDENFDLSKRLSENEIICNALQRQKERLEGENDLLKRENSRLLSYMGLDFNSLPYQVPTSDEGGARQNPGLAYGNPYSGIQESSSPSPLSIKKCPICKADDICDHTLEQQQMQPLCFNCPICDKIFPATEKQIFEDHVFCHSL
B3: Microtubule-associated tumor suppressor candidate 2 (Homo sapiens), Q5JR59-3 (parent)
chain: MGHCCCKPYNCLQCLDKTNESALVKEKELSIELANIRDEVAFHTAKCEKLQKEKEELERRFEDEVKRLGWQQQAELQELEERLQLQFEAEMARLQEEHGDQLLSIRCQHQEQVEDLTASHDAALLEMENNHTVAITILQDDHDHKVQELMSTHELEKKELEENFEKLRLSLQDQVDTLTFQSQSLRDRARRFEEALRKNTEEQLEIALAPYQHLEEDMKSLKQVLEMKNQQIHEQEKKILELEKLAEKNIILEEKIQVLQQQNEDLKARIDQNTVVTRQLSEENANLQEYVEKETQEKKRLSRTNEELLWKLQTGDPTSPIKLSPTSPVYRGSSSGPSSPARVSTTPR
partner: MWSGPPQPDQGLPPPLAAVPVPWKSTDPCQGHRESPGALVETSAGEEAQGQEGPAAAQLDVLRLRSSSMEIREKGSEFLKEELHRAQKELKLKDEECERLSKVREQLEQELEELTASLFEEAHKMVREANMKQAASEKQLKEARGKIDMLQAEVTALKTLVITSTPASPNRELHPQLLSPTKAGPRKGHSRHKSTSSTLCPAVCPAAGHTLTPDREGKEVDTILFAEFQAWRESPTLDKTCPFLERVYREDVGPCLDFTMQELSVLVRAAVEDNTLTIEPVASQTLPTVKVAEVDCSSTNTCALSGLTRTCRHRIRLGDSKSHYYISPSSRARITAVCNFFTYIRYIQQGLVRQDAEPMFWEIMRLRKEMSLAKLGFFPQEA
B4: Centriolar satellite-associated tubulin polyglutamylase complex regulator 1 (Homo sapiens), Q9H6J7 (parent)
chain: MLSPERLALPDYEYLAQRHVLTYMEDAVCQLLENREDISQYGIARFFTEYFNSVCQGTHILFREFSFVQATPHNRVSFLRAFWRCFRTVGKNGDLLTMKEYHCLLQLLCPDFPLELTQKAARIVLMDDAMDCLMSFSDFLFAFQIQFYYSEFLDSVAAIYEDLLSGKNPNTVIVPTSSSGQHRQRPALGGAGTLEGVEASLFYQCLENLCDRHKYSCPPPALVKEALSNVQRLTFYGFLMALSKHRGINQALGALPDKGDLMHDPAMDEELERLLAQVPGLVNSVTASPEASCLPSRTPPRVGSPWRPLHHSRKVDGESDGSTEETDESET
partner: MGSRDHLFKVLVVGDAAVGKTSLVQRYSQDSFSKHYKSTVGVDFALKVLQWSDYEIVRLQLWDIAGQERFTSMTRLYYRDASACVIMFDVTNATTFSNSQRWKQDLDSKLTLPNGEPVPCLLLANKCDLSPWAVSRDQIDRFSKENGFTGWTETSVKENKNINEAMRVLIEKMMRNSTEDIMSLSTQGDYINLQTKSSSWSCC
B5: N-acetyltransferase 8 (Homo sapiens), Q9UHE5 (parent)
chain: MAPCHIRKYQESDRQWVVGLLSRGMAEHAPATFRQLLKLPRTLILLLGGPLALLLVSGSWLLALVFSISLFPALWFLAKKPWTEYVDMTLCTDMSDITKSYLSERGSCFWVAESEEKVVGMVGALPVDDPTLREKRLQLFHLFVDSEHRRQGIAKALVRTVLQFARDQGYSEVILDTGTIQLSAMALYQSMGFKKTGQSFFCVWARLVALHTVHFIYHLPSSKVGSL
partner: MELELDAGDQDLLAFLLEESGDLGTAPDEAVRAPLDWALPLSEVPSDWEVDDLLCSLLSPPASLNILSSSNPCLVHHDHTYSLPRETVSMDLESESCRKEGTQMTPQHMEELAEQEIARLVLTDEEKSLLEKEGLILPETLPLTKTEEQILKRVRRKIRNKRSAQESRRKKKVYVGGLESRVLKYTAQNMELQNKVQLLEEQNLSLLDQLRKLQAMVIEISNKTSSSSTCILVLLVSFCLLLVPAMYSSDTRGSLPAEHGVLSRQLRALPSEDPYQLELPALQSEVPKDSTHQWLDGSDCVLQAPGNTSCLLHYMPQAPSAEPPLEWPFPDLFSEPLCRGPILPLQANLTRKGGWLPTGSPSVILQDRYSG
B6: Beta-taxilin (Homo sapiens), Q8N3L3 (parent)
chain: MEANHSEQLSAERQSTPPGDSSSLPSHNGLEKEDGQDSPTPVQPPEKEASVHPDISEELNRQLEDIINTYGSAASTAGKEGSARASEQPENAESPDNEDGDCEETTEEAGREPVASGEPPTVKEPVSNKEQKLEKKILKGLGKEANLLMQNLNKLQTPEEKFDFLFKKYAELLDEHRTEQKKLKLLQKKQVQIQKEKDQLQGEHSRAILARSKLESLCRELQRHNKTLKEEALQRAREEEEKRKEITSHFQSTLTDIQGQIEQQSERNMKLCQENTELAEKLKSIIDQYELREEHLDKIFKHRELQQKLVDAKLEQAQEMMKEAEERHKREKEYLLNQAAEWKLQAKVLKEQETVLQAQLTLYSGRFEEFQSTLTKSNEVFATFKQEMDKTTKKMKKLEKDTATWKARFENCNKALLDMIEEKALRAKEYECFVMKIGRLENLCRALQEERNELHKKIRDAEISEKDDQSQHNSDEEPESNVSVDQEIDAEEVNSVQTAVKNLATAFMIIHHPESTPHQSKETQPEIGSSQESADAALKEPEQPPLIPSRDSESPLPPLTPQAEAEGGSDAEPPSKASNSPAGLGAETQCEGLPVGAQADQASWKPEAEASGQAPQAPTEASLQKMEADVPAPACAAEEHVAAMVPACEPSRQPPRAAAEELPVGASAGPQPRNVADTNLEGVD
partner: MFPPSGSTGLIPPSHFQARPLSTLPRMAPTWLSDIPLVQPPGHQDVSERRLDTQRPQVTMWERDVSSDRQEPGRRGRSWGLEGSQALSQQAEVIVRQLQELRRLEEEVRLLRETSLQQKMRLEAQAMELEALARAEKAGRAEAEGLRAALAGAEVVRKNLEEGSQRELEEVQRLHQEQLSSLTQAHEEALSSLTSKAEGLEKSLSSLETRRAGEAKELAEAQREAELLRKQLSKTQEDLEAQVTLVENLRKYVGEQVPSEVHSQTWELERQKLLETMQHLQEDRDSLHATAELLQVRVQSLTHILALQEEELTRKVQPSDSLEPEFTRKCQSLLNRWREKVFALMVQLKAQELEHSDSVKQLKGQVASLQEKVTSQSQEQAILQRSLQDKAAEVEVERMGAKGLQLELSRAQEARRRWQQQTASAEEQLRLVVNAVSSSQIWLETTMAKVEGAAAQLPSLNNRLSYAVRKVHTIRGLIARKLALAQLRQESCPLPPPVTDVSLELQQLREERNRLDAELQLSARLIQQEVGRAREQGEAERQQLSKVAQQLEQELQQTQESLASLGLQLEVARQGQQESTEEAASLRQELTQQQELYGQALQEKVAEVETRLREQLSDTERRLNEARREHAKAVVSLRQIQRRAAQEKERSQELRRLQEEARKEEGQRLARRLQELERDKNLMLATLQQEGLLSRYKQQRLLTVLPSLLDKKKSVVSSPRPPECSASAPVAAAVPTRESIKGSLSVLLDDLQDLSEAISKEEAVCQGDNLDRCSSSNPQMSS

Variants of: B1
Details: with epmip_human EPM2AIP1, Q7L775

Variant | effect of a mutation on the interaction
R104H | disrupting interaction strength
N212D | with no effect
Y106H | with no effect
F41L | with no effect
T187A | with no effect

Variants of: B2
Details: with caco2_human CALCOCO2, Q13137

Variant | effect of a mutation on the interaction
R369Q | with no effect
M410V | with no effect

Variants of: B3
Details: with RAB3IL1, Q8TBN0

Variant | effect of a mutation on the interaction
A89V | with no effect

Variants of: B4
Details: with rab7l_human RAB29, O14966

Variant | effect of a mutation on the interaction
S177L | with no effect

Variants of: B5
Details: with creb3_human CREB3, O43889

Variant | effect of a mutation on the interaction
F143S | with no effect

Variants of: B6
Details: with cchcr_human CCHCR1, Q8TD31

Variant | effect of a mutation on the interaction
I527T | with no effect
